Results taken from publication PMC2651629, “Structure of the Archaeal Pab87 Peptidase Reveals a Novel Self-Compartmentalizing Protease Family” (PLoS ONE, 2009).

Legend:
[1] = target: Pyrococcus abyssi Pab87 protein (Pyrococcus abyssi); assay: cryo-EM structure; 0.5 mg/mL Pab87 in 50 mM Tris-HCl pH 8.5, 350 mM NaCl; single-particle reconstruction at around 14 Å, fitted with the X-ray structure
[2] = target: Pyrococcus abyssi Pab87 protein (Pyrococcus abyssi); assay: crystal structure; Pab87 co-crystallised with Lu-HPDO3A (200 mM), 20 mM CaCl2, 30% MPD, 100 mM sodium acetate pH 4.6, 18°C; space group P1, eight molecules per asymmetric unit; 2.2 Å
[3] = target: Pyrococcus abyssi Pab87 protein (Pyrococcus abyssi); assay: AUC; sedimentation velocity, 20°C, 40,000 rpm, 10 µM protein in 150 mM Tris pH 8.5, 350 mM NaCl; c(s) and c(M) distributions (Sedfit)

Measured: stoichiometry N

Pyrococcus abyssi Pab87 protein (enzyme)
8: all assays above
